The target of one assay is DDB1–DCAF12–DDA1 complex (human | , UniProt Q5T6F0 1-453; Q5T6F0 1-453; Q9BW61 1-102). In words: FP.
In assay [1] the target is biotinylated DCAF12 (Δ1–78) (human, UniProt Q5T6F0 79-453, biotin). In words: SPR.

Where no end group is shown, it is not given here. The star is where a group is joined. FITC = O=C1OC2(c3ccc(O)cc3Oc3cc(O)ccc32)c2ccc(NC(=S)*)cc21

In the case of {FITC}-LHEWVLREGEE [FITC-labeled MAGEA3 peptide], in the assay with DDB1–DCAF12–DDA1 complex, the Kd was 60 nM.
IRKPGESEE [unlabeled CCT5 peptide]: the koff in assay [1] is 0.017 s⁻¹.
The same measure, in the same setting: the same measure for LHEWVLREGEE [unlabeled MAGEA3 peptide]: 0.06 s⁻¹.
Molecule {FITC}-IRKPGESEE [FITC-labeled CCT5 peptide] displayed a Kd in the assay with DDB1–DCAF12–DDA1 complex of 130 nM.

Source of the values: paper PMC11044963 (2024).
